This is an account of results in patent US20170342151A1 (Memorial Sloan Kettering, published 2017).

Like-named read-outs stand apart in the source and are kept apart here.

For assay [1], the target named is T1, anti-763 idiotype antibody MK2-23.
T1 construct: Immobilized on the CM5 chip; also called anti-idiotype MK2-23
The assay is described as follows: SPR, Biacore T-100, MK2-23 on CM5 chip, monovalent analyte model. Here is the method: (§1) CMS sensor chip (Research grade) and related reagents were purchased from Biacore USA (Piscataway, N.J.). […] The system first run 20× cycles of buffer only to get stable baseline levels. […] Samples (60 μL) were injected over the sensor surface at a flow rate of 30 μL/min over 2 min. Association time was set for one minute; dissociation time was set for from five minutes to 30 minutes. Following completion of the association phase, dissociation was monitored in HBS-E buffer containing 250 mM NaCl at the same flow rate. At the end of each cycle, the surface was regenerated using 50 μL 20 mM NaOH at a flow rate of 50 μL/min over one minute and 100 μL 4M MgCl₂ at a flow rate of 50 μL/min over two minutes.
On the technique in general: Surface plasmon resonance follows binding to a sensor surface in real time, without labels.

For assay [2], the target named is T2, D2.8.11, a peptide epitope for murine 763 (human).
T2 construct: also called antigen D2.8.11; peptide D2.8.11
T2 chain: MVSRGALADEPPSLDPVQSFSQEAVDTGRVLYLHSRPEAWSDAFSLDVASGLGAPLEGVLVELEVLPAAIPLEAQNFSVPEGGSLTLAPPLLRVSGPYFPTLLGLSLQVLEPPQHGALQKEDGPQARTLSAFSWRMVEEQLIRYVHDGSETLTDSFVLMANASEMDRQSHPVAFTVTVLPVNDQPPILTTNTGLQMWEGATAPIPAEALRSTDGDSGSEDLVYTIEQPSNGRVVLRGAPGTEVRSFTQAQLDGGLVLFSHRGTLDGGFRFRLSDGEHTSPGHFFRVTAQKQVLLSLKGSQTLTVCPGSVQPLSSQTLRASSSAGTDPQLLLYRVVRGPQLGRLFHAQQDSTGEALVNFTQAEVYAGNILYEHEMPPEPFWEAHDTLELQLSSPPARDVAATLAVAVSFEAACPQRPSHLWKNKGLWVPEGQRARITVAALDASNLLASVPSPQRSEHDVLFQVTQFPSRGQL
Description: SPR, Biacore T-100, D2.8.11 on CM5 chip, bivalent analyte model. How it is done: as §1

The target of assay [3] is T1, anti-763 idiotype antibody MK2-23. The assay is described as follows: SPR, Biacore T-100, MK2-23 on CM5 chip, monovalent analyte model. How it is done: as §1
This is another data set of the same source.

Assay [4] addresses T2, D2.8.11, a peptide epitope for murine …. Description: SPR, Biacore T-100.
Assay [5] concerns the target T3, human chondroitin sulfate proteoglycan 4 (CSPG4) on cells (human, UniProt Q6UVK1 30-2322).
T3 construct: Target on CSPG4-positive M14 cells (FACS, cell ELISA) and in frozen human tissue sections (IHC); also called HMW-MAA; MCSP
The assay is described as follows: ELISA on M14 cell-coated plates, HRP goat anti-human secondary. How it is done:
Hu763-IgG1 was also subjected to five cycles of a freeze and thaw process. […] Antigen binding was expressed as % of MFI of maximum binding at 5 μg. E, ELISA analysis of hu763-IgG1 and hu763-IgG1n on M14 cells coated plates. Binding was detected with HRP conjugated goat anti-human secondary antibody. Hu763-IgG1n was subjected to five cycles of a freeze and thaw process.
An ELISA method using coated M14 as antigen was also used to assay hu763-IgG1 and hu763-IgG1n binding (FIG. 3E). […] Hu763-IgG1n still bound to M14 cells well after subjected to five cycles of freezing and thawing process.
A general note: An ELISA detects its analyte on a solid surface through an enzyme-linked reagent.

The target in assay [6] is CD3 antigen (surface plasmon resonance). Description: SPR, Biacore, two state reaction model.

T3 sequence (Q6UVK1 30-2322 limits assumed): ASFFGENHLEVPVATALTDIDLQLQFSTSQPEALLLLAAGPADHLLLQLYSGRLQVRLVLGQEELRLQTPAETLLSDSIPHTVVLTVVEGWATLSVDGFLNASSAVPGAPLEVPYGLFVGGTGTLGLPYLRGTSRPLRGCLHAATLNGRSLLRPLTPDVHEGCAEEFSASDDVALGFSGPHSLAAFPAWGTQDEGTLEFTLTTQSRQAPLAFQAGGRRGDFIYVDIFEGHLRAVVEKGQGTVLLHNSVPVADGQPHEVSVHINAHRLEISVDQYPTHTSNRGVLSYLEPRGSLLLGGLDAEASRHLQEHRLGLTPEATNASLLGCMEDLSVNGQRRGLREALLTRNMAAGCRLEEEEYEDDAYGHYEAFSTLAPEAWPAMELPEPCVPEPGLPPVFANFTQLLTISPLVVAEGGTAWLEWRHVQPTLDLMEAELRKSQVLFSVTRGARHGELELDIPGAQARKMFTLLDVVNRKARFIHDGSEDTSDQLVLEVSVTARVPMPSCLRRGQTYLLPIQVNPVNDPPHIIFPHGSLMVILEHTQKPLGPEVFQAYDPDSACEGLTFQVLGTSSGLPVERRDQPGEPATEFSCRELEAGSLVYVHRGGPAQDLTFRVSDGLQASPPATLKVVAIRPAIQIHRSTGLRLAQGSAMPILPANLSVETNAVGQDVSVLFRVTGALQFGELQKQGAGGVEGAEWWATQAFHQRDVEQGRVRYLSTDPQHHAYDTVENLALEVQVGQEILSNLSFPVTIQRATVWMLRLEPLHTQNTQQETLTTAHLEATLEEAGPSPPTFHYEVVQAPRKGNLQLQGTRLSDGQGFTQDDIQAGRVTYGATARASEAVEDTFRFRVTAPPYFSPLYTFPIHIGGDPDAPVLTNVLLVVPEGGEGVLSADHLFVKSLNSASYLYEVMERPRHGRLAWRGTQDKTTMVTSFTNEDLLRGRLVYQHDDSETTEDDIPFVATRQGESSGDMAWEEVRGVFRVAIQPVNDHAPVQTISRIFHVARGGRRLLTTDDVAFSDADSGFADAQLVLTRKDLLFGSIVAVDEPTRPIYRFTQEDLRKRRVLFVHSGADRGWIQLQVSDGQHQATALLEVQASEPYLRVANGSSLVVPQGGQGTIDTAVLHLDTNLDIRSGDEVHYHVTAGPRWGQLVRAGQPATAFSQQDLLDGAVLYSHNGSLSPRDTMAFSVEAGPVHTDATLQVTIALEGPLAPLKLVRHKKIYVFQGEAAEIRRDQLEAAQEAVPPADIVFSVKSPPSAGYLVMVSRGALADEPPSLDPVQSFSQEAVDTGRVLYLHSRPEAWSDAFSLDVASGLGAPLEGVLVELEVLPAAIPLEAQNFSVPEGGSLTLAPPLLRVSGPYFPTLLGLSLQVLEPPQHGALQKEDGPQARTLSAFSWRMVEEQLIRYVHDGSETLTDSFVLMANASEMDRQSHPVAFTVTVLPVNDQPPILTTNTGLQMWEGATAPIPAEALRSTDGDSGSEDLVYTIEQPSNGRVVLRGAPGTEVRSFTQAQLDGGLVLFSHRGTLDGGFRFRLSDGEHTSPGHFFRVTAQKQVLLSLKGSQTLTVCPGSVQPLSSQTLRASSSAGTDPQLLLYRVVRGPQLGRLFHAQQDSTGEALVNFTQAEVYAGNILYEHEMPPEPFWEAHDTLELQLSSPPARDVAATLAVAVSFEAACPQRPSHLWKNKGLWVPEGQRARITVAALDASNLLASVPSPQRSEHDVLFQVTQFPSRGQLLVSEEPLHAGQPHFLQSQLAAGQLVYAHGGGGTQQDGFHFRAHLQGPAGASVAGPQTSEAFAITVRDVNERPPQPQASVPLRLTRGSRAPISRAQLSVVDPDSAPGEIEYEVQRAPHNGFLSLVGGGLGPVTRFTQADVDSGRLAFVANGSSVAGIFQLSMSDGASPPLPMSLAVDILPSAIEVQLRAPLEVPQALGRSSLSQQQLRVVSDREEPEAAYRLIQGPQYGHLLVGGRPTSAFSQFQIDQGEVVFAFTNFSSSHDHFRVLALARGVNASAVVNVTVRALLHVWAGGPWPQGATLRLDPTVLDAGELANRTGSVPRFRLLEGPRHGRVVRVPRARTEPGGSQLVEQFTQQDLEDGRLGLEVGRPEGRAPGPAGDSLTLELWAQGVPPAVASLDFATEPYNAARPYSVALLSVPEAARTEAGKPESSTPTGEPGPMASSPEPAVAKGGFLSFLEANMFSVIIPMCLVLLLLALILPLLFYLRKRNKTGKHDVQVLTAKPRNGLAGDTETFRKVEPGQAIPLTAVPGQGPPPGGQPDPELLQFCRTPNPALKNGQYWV

B1: ch763IgG1, chimeric 763 HC and LC in IgG1 format (antibody, V domains shown)
VH: QIQLVQSGPELKKPGETVKISCKASGYTFTDYSMHWVKKTPGKGLKWLGWINTATGEPTYADDFKGRFAISLETSARTVYLQINNLRNEDTATYFCFSYYDYWGQGTTLTVSA
VL: DIKLSQSPSILSVTPGETVSLSCRASQTIYKNLHWYQQKSHRSPRLLIKYGSDSISGIPSRFTGSGSGTDYTLNINSVKPEDEGIYYCLQGYSTPWTFGGGTKLEIKR
B1: in assay [1], the Kd is 1.89 nM, the off-rate (koff) was 0.000339 s⁻¹ and the kon amounted to 179000 M⁻¹ s⁻¹. In assay [2], this molecule had a Kd of 84 nM, a koff of 0.00295 s⁻¹ and a kon of 35100 M⁻¹ s⁻¹.

B2: murine anti-CSPG4 antibody 763.74 (antibody, V domains shown)
VH: QIQLVQSGPELKKPGETVKISCKASGYTFTDYSMHWVKKTPGKGLKWLGWINTATGEPTYADDFKGRFAISLETSARTVYLQINNLRNEDTATYFCFSYYDYWGQGTTLTVS
VL: DIKLSQSPSILSVTPGETVSLSCRASQTIYKNLHWYQQKSHRSPRLLIKYGSDSISGIPSRFTGSGSGTDYTLNINSVKPEDEGIYYCLQGYSTPWTFGGGTKLEIK
notes: also called m763
For the molecule B2, the Kd came to 0.582 nM in assay [3], 1.3 nM in assay [4], 2.09 nM in assay [1] and 1.34 nM in assay [2]. The results for the dissociation rate constant (koff) in assay [3], in assay [1] and in assay [2] were 8.5e-05 s⁻¹, 0.000163 s⁻¹ and 3.89e-05 s⁻¹, respectively. Further, the association rate constant (kon) worked out at 146000 M⁻¹ s⁻¹ in assay [3], 29600 M⁻¹ s⁻¹ in assay [4], 78200 M⁻¹ s⁻¹ in assay [1] and 29000 M⁻¹ s⁻¹ in assay [2].

B3: hu763IgG1n H2-L2, humanized 763 H2 and L2 in IgG1 format with variant glycosylation (antibody)
heavy: not shown
light: EIVLTQSPATLSVSPGETVTLSCRASQTIYKNLHWYQQKSGLSPRLLIKYGSDSISGIPARFSGSGSGTDYTLTINSVEPEDEGIYYCLQGYSTPWTFGQGTKLEIKRTVAAPSVFIFPPSDEQLKSGTASVVCLLNNFYPREAKVQWKVDNALQSGNSQESVTEQDSKDSTYSLSSTLTLSKADYEKHKVYACEVTHQGLSSPVTKSFNRGEC
modifications: variant Fc glycosylation from expression in GnT1-deficient CHO cells (78.3% mannose, 20.5% N-acetyl glucosamine, 1.2% glucose; no fucose)
notes: also called hu763-H2L2-IgG1n
Take B3: in assay [3], the Kd is 0.449 nM, the koff was found to be 7.54e-05 s⁻¹ and the kon amounted to 168000 M⁻¹ s⁻¹. In addition, in assay [2], the Kd was determined as 1.15 nM, the koff was 3.28e-05 s⁻¹ and the kon worked out at 28500 M⁻¹ s⁻¹. Also, in assay [5], the binding result is on record as “binds”.

B4: hu763IgG4 H2-L2, humanized 763 H2 and L2 in IgG4 format (antibody)
heavy: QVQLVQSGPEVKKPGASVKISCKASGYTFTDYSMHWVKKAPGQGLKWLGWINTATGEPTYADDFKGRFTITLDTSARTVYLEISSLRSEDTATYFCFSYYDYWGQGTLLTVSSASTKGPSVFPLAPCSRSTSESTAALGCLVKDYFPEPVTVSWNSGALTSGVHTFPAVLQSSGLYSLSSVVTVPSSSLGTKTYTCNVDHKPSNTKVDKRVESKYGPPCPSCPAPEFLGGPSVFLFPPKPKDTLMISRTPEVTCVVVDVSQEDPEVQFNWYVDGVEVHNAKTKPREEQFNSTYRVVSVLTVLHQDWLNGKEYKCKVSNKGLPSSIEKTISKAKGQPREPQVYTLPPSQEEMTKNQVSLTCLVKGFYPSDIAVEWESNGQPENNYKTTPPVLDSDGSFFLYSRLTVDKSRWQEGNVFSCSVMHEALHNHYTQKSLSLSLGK
light: B3 light
As to B4, in assay [3], the Kd stood at 0.48 nM, the koff amounted to 8.01e-05 s⁻¹ and the association rate constant (kon) was determined as 167000 M⁻¹ s⁻¹. In assay [2], the Kd was 1.22 nM, the off-rate constant (koff) amounted to 3.5e-05 s⁻¹ and the association rate constant (kon) came to 28700 M⁻¹ s⁻¹.

B5: hu763IgG1 H2-L2, humanized 763 H2 and L2 in IgG1 format (antibody)
heavy: not shown
light: B3 light
notes: also called parental hu763
Take B5: in assay [1], the Kd was 1.75 nM, the koff stood at 0.000181 s⁻¹ and the kon came out at 103000 M⁻¹ s⁻¹. In assay [2], the Kd worked out at 1.29 nM, the koff came out at 3.81e-05 s⁻¹ and the association rate constant (kon) turned out to be 29600 M⁻¹ s⁻¹.

B6: hu763-HC-OKT3, humanized 763 IgG1 with huOKT3 scFv on the C-terminus of the heavy chain (bispecific antibody)
heavy: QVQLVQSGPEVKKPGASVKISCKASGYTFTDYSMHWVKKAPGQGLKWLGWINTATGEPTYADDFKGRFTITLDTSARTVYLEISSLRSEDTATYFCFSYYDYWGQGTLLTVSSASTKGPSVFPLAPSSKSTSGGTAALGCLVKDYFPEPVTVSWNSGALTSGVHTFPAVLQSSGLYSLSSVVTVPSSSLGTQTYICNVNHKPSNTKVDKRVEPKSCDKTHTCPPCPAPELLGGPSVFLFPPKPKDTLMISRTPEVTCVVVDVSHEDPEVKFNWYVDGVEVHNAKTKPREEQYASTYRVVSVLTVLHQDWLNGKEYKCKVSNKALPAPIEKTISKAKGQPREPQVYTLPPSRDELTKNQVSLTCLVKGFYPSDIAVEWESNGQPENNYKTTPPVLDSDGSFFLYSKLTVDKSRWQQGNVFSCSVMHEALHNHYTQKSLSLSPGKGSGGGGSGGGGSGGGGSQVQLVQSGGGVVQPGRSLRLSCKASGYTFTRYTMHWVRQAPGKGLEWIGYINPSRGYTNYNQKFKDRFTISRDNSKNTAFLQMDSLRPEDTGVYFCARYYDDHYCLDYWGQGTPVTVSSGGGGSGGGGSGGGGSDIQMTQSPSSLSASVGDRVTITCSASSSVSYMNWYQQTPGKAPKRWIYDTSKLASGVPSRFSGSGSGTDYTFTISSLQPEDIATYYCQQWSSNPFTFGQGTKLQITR
light: B3 light
notes: IgG-scFv format, aglycosylated Fc (N297A); also called hu763-HC-huOKT3; hu763-BsAb
In the case of B6, in assay [6], the Kd amounted to 231 nM, the koff worked out at 0.0696 s⁻¹ and the association rate constant (kon) was found to be 302000 M⁻¹ s⁻¹.

What is called koff is the rate constant with which the complex falls apart. Higher therefore signals a short-lived complex. Broadly, the kon is the rate constant with which the complex forms. A higher kon goes with faster complex formation.
